Reference: patent US20110047631A1 (MEDICAL COLLEGE OF GEORGIA RESEARCH INSTITUTE, published 2011)

Molecular target: T1, purified wild-type tau441 (UniProt P10636-8 1-441)
T1 construct: The 441-residue isoform, not the canonical UniProt entry length; Used at 2 uM; also called purified tau 441; purified tau
Test: purified wild-type tau441 and purified Hsp110 incubated together, immunoprecipitation, immunoblot
Method: As the data in FIG. 6 indicates, Hsp110 is present in tau immunocomplexes; however, it is not clear whether the interaction is direct or indirect. In order to determine whether Hsp110 interacts with tau directly, we incubated purified wild-type tau441 and Hsp110 and subjected them to immunoprecipitation analyses.

T1 sequence (P10636 other isoform, or with tags, fused parts or gaps limits assumed): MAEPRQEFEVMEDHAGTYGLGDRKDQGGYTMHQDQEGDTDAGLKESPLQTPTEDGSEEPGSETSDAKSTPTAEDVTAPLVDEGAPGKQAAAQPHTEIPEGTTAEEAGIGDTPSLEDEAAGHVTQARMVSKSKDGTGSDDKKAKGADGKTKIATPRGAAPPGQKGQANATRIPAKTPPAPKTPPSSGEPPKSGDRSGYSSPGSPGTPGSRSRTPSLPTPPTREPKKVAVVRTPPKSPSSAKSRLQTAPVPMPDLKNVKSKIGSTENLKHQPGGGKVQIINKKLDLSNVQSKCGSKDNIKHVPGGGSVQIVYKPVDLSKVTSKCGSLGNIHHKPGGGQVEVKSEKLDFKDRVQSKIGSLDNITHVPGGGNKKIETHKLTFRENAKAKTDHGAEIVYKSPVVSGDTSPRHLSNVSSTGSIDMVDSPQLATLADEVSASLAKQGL

- binding result: binds
B1: purified full-length Hsp110 (human) (other, UniProt Q92598 2-858, looked up)
chain: SVVGLDVGSQSCYIAVARAGGIETIANEFSDRCTPSVISFGSKNRTIGVAAKNQQITHANNTVSNFKRFHGRAFNDPFIQKEKENLSYDLVPLKNGGVGIKVMYMGEEHLFSVEQITAMLLTKLKETAENSLKKPVTDCVISVPSFFTDAERRSVLDAAQIVGLNCLRLMNDMTAVALNYGIYKQDLPSLDEKPRIVVFVDMGHSAFQVSACAFNKGKLKVLGTAFDPFLGGKNFDEKLVEHFCAEFKTKYKLDAKSKIRALLRLYQECEKLKKLMSSNSTDLPLNIECFMNDKDVSGKMNRSQFEELCAELLQKIEVPLYSLLEQTHLKVEDVSAVEIVGGATRIPAVKERIAKFFGKDISTTLNADEAVARGCALQCAILSPAFKVREFSVTDAVPFPISLIWNHDSEDTEGVHEVFSRNHAAPFSKVLTFLRRGPFELEAFYSDPQGVPYPEAKIGRFVVQNVSAQKDGEKSRVKVKVRVNTHGIFTISTASMVEKVPTEENEMSSEADMECLNQRPPENPDTDKNVQQDNSEAGTQPQVQTDAQQTSQSPPSPELTSEENKIPDADKANEKKVDQPPEAKKPKIKVVNVELPIEANLVWQLGKDLLNMYIETEGKMIMQDKLEKERNDAKNAVEEYVYEFRDKLCGPYEKFICEQDHQNFLRLLTETEDWLYEEGEDQAKQAYVDKLEELMKIGTPVKVRFQEAEERPKMFEELGQRLQHYAKIAADFRNKDEKYNHIDESEMKKVEKSVNEVMEWMNNVMNAQAKKSLDQDPVVRAQEIKTKIKELNNTCEPVVTQPKPKIESPKLERTPNGPNIDKKEEDLEDKNNFGAEPPHQNGECYPNEKNSVNMDLD
notes: mature; used at 2 uM; also called purified Hsp110
